Consider 21 sequences from the DeepSol protein solubility set.

This data set in a line: soluble on expression in E. coli; label from the status in PepcDB or PDB records.
Regarding “MGSDKIHHHHHHMLITCSESGIDFGKSLSTYIHEYLGLNRNCRLFEVKQACYSGTAGFQMAVNFILSQTSPGAKALVIASDISRFLIAEGGDALSEDWSYAEPSAGAGAVAVLVGENPEVFQIDPGANGYYGYEVMDTCRPIPDSEAGDSDLSLMSYLDCCEQTFLEYQKRVPGANYQDTFQYLAYHTPFGGMVKGAHRTMMRKVAKVKTSGIETDFLTRVKPGLNYCQRVGNIMGAALFLALASTIDQGRFDTPKRIGCFSYGSGCCSEFYSGITTPQGQERQRTFGIEKHLDRRYQLSMEEYELLFKGSGMVRFGTRNVKLDFEMIPGIMQSTQEKPRLFLEEISEFHRKYRWIS”, the “soluble on expression in E. coli” value was “not soluble”. Next, “MGSDKIHHHHHHMTKNARQTALDVLNDIFGNDAYANISLDRNLRDSELSTVDKAFVTALVYGVVSKKDLLEWHITPFLKKEPKPWAKMLLLLTVYQILFMDKVPTSAAVDEAVKIAKRRDGQATANFINAVLRNFMRSEHRNEEPKDWETKYSMPKLLLDKMVRQFGGKRTGEILESLEKPSHVSLRKIDPTVEISGTRASLLTESALIADSGNFAMTEEFQSGRITIQDETSQLVAPQLDLEGTEEVLDACAAPGGKSTHMAQYLTIGHITALDLYDHKLDLINQNAERQHVADKITTQKADATMIFEEFGSDKFDRILVDAPCSGIGLIRRKPDIRYRKESSDFVDLQKIQLEILNSASKSLKKSGIMVYSTCTIFDEENFDVVRQFLESHPNFEQVEISSDKADMIKEGCIFITPEMYHTDGFFIAKFKKIGE”: “not soluble”.

As for “MSLIVVKIGGRVVKNSLDKIILDILNINDKVILVHGGGDIVTDYTKRLGIEPVFVTSPEGIRSRYTTKEELEVYIMAMSLINKSITSKLCSLGKNAIGITGVDGGLLLAERKKRIVVIDERGKKRIIEGGYTGKVKEVRSEIINHLVKLFDIIVVSPIALDVEERTPLNIDGDQAAFAISKALRANVLILLSDVEGVLVEGKVINRLTPSEAKELSKKIGPGMNRKLLMAAESVENGVNKVIIGSGVKDRPIINALELNGTVIANGEGHHHHHH”, the “soluble on expression in E. coli” value was “soluble”. To “MSPWERILLEEILSEPVRLVKERVRTHTGRELTYVYRPGPVAASFVLPVTERGTALLVRQYRHPTGKFLLEVPAGKVDEGETPEAAARRELREEVGAEAETLIPLPSFHPQPSFTAVVFHPFLALKARVVTPPTLEEGELLESLELPLTEVYALLAKGEIQDASTALTLFYAEPHLKRLGLL” belongs “soluble”. To “MGSDKIHHHHHHMWTPCGRADGNANSPRQSQFALDDLIDIPTDFSLYSTALKKFSQGMERPMYRNFRIVPNIIFGRGSFNQLDDVLKDRRVTADSWMVFVVDDVFTGKPLEGRFPLRGRDLLLWVNVDDEPKTRYIDELVARIRAYSPTAPAGIAGIGGGSAMDIAKAVSLMLNNPGSSADYQGWDLIKNPAVYHVAVPTLAGTGAEISRTTILTGPEKKLGINSDYTLYDQILLDPELLAGVPKNQWFYTGMDCYIHDVESLNGTFINEFSKAYGEKSRDLCREVFLDDSPAKDDKLMMASYFGGMSIAYSQVGACHALSYGLSYVLGIHHGVGCCIAFDQLEEIYPEGVQEFRQMMEKHDIPLPRNLTKDLDSASMEKMVTTALNLVPLWENCLGPDWANIMTRERAMELYKKM” belongs “not soluble”; to “METDPDYSMVLLTENFPPYNMAINGKNFAQEDNIDGIAVDIVREMFKRAGIKYSLTLRFPWDRIYKLALEKPGYGVFVTARLAEREDKFKWVGPIGPDDWVLLAKGDSPITLGSLDEAKKYRIGAYKGDAIAEFLGKNGFEADLALRDQENAQKLVKGQIDLWASGDPAGRYLAKQEGVTGLKTVLRFNSDQLYLALNRETPDEVVQKLQAALDGMRKEGFVEDILNSYLLEHHHHHH”, “soluble”; to “MAHHHHHHMLVKENHSVILYADEENVELVKLTSDGVLTNRKGTFLHKNIIGKKYGSKIYDSACRNYIYVLRRTPEFVAISLKKKTQTLYEHDISFICLLCNALPNKKIIEAGTGTGCLTYALASCVLPKGVIHTFEYNEERYEEVRNEFSNFENVKNNIKFHHKDVISDSFVEFQPGEIDSVFLDMPNPWLCVPHVKKVLKERGVFVIFLPCIEQVYKIIEALEENQFCEIVTYELVNKSWEIIRNGGPAGGCKRARQFSLGGAKETSDPLEGVKETGDPLEGVKETGGPLEGVKETGDPLEGVKETGDPLERAKQSNDPLERAKQSSDPSNEQKNCPTPAQSQNPTYRLRQKENKTHTGYLIFSKKELSDEHEQIEIELKGV”, “not soluble”. In the case of “MGSDKIHHHHHHMTVLQLPIIDISGLTCQRNNSSDVVAQQIKQACQDYGFFYIVGHGVDEQLQTQLEHLSQEFFAQDQETKLKISMALGGRAWRGYFPVGNELTSGRPDLKEGIYFGSELKDNHPLVKAGTPMHGRNLFPSNIPQFRETVLEYIDSMTKLGHILMAGIALSLDLDKSYFAERYTKDPLILFRIFNYPPNLGSQSEWGVGEHTDYGVLTILKQDNIGGLQVKSKSGWIDAPPIPGSFVCNIGDMLDRMTRGLYRSTPHRVRNLSTSNRLSFPFFFDPNFNVEVKPIDLKDVVVKDDQSDRWDKASVHEFRGTYGDYLLKKVSKVFPELRQKVL”, the “soluble on expression in E. coli” value is reported as “not soluble”.

Consider “MPKILWKSLHLCFPSNLTKCYSSPCIPPSSADPDGIIQPNRPSIVLLNNFNLLYHNDNHHHPHRVIDLPSSSTTTTPAATSSSSTSSYESDISPDVSAAFASRRFFFSSPGRSNAITDSPEPRSREFSDNYDDATITSTKKKKKKVYDNSVTTTTTRLISGGTAVTQHVDSPDPLTDFRRSMQEMIDAAIDAGELSRDPNDGYDFLDELLLTYLSLNPADTHKFVIRAFSDILVSLLSEERRIC”, for which the “soluble on expression in E. coli” value is “soluble”.

Turning to “GPLGSEEEQFALALKMSEQEAREVNNQEEKEEELLRKAIAESLNS”, the “soluble on expression in E. coli” value is reported as “soluble”.

For “MGTRDDEYDYLFKVVLIGDSGVGKSNLLSRFTRNEFNLESKSTIGVEFATRSIQVDGKTIKAQIWDTAGQERYRAITSAYYRGAVGALLVYDIAKHLTYENVERWLKELRDHADSNIVIMLVGNKSDLRHLRAVPTDEARAFAEKNGLSFIETSALDSTNVEAAFQTILTEIYRIVSQKQMSDRRENDMSPSNNVVPIHVPPTTENKPKVQCCQNI”, the “soluble on expression in E. coli” value is reported as “soluble”. To “MLVKSMNFDPLKEAEKIKDEIISWRRDFHMHPELGFEEERTSKIVEEHLREWGYKIKRAGTGIIADIGDGGKTIALRADMDALPIQEENDVPYKSRVPGKMHACGHDAHTAMLLGAAKIIAEHSSELENKVRLIFQPAEEGGNGALKMIEAGALEGVDAIFGIHVWAELPSGIVGIREGPFLAGVGKFIAKIIGKGGHGAAPHFSIDPIPAAADAVLALQRIVAREVDPLESAVVTVGKIQGGTAFNVIPQYVELEGTFRFFTQELGKFLERRIREIIENTAKAHNCKAEVNTEILGPPTINDEKMVKFVAETAKALGLKVGEVRKTLGGEDFAYYLEKVPGAFIALGIRNEEKGIIYPHHHPKFDVDEDVLYLGTALEVALAFNFKG” belongs “soluble”. Next, “GPGSMQTAHAHTMTAQMKVLKPKTVFDNRPDEARKPIKLILLGDSAVGKSKLVERFLMQRYIPVQMSTYALTLYRYDFVTEDGEEVDVDIWDTAGQERFATVHPSYYHDAHACILVFDSTRKATYKNLEKWLSEMRVYREHIPCLVACNKIDTDPSVTTKSFAFAEKHNFPLYYVSAADGSNVVQLFESAISTAAAYKKNPAKDDFMTQVIGILKEDKTAAGASAVSS”: “soluble”; “SLLPSFFPCCRCKWSATGCGTCSTQDCEGICKMTSGEQAKTPLQAPILLTNVKPVGFGKGASQSSTDILIGGDGKIAAVGSALQAPADTQRIDAKGAFISPGWVDLHVHIWHGGTDISIRPSECGAERGVTTLVDAGSAGEANFHGFREYIIEPSRERIKAFLNLGSIGLVACNRVPELRDIKDIDLDRILECYAENSEHIVGLKVRASHVITGSWGVTPVKLGKKIAKILKVPMMVHVGEPPALYDEVLEILGPGDVVTHCFNGKSGSSIMEDEDLFNLAERCAGEGIRLDIGHGGASFSFKVAEAAIARGLLPFSISTDLHGHSMNFPVWDLATTMSKLLSVDMPFENVVEAVTRNPASVIRLDMENRLDVGQRADFTVFDLVDADLEATDSNGDVSRLKRLFEPRYAVIGAEAIAASRYIPRARKLVRHSHGYSWR”: “soluble”. To “MNCRGHETRQRIVRDFEVQPKAHIKLLANQQKHSDAGATIEDEYYVFIAESKIDGKKEVIQCCMGAARDFLELINHKGLPLFNPLVGDSHVNNRQEYDNTGSGNL” belongs “not soluble”; to “MAQGNQQIDNQVLHHLRQKFPEVPEDVVCECVLQNKSDLAACCEYLTKVSPRFLYSEGSQSLTDLRNHMTQLNLGVSQNTHGAVQRDAVGMNGSRTLAPSVSDGPLNVPSALSEFYQPETPSVPTHTPASLSMESTRKPQPPQHLGLYQVGGKGHAPPQAPRFNPITVTLAPNTGRNTPTSLHIHGGPQSGLNSPNSIYIRPYVTQPGSTRQVQCRAQYSPTSQPAQQIYQITHPAAPQSSWSQHQTSHVYMPISSPTNTHTHTRFTCVCARVRMPVCLIHGNGR”, “not soluble”.

Regarding “SMTEEQPVASWALSFERLLQDPLGLAYFTEFLKKEFSAENVTFWKACERFQQIPASDTQQLAQEARNIYQEFLSSQALSPVNIDRQAWLGEEVLAEPRPDMFRAQQLQIFNLMKFDSYARFVKSPLYRECLLAEAEGRPLREPGSSRLGSPDAT”, the “soluble on expression in E. coli” value is listed as “soluble”.

As to “AYGKKSQTEVISFEEVVHPAEKIREALQVGKNEAIYELIRRRMLDGEPMTVEKIYLPQAYVQGHTKQDFEGSLFCLIEKNVEIAYSHQEIEAILVEAEISELLNVPVGQPLLQVHSITYALDATPILYDVSLYRADRYTFKNTLTRYSPSENNQVELGGSWNE”, the “soluble on expression in E. coli” value is listed as “soluble”.

As for “MGSDKIHHHHHHMSTSYEISSLPWLSASHELLLKQVRLGSLSHGHLLDVHTQLGGDVLAQSMAKLILCQALTPVGACGQCKACLLVSAGTHPDLHSVAPDGNQIKVDQIRSLCSSLTSTAQQGGKRVAIIYQSERMNTASANALLKTLEEPGKETFLLLQTDRTAALLATVKSRCQTLSITPPSNAEVNAWLKGQQLLPVVPDGAKPHDVTWCLSVVGGPIQLAQSLQSDKYQTLLNYRKEWAMSLSSGHLCGSLLALKDNQLIDALQVLYLYLRHFVLKSNDINAFTKAQVITLAAKIMEMRHKLTTMAAVNTQALCMDYVLAFRQLTHTHR”, the “soluble on expression in E. coli” value is given as “not soluble”.

On to “MGCDFAIAKDFLLFFLTKPISMKLSVIIPIYNEIQTIEKILKKITTVMPEIPKEIVMVDDGSKDGTREWLVDTFGDPEQHPVLANVNLAGKFQCFPLDQSAETNGDRQGNSFVMPKEWEVKVIFHRQNQGKGGALHTAFAAATGDVLIIQDADLEYDPEDWGPMWKLIDGGWADVVYGSRFYGNPHRVLYFHHYLGNKLITSLIDLVCNINLTDIEVCYKMFRREVLEDLRLTCNDFGFEVEFTMKVTRSPKRWRIYEVGVAYYGRTFAEGKKINWRDGVKALGYIAKFWLTNALEHHHHHH”, for which the “soluble on expression in E. coli” value is on record as “not soluble”. As for “MGSDKIHHHHHHMEKILTKQEIEALLAAVFEGKIEPDKELAKAEATVQSYDLFSSESKGNIPNLDIIYDSFIRYQRGTLSNRLGRIVEIKKVGAASFKFDDFLHTMPSPVAMAVYKADPLKGAALIAFDSTLVFTIVDCILGGTGSSVVPTVGNRMFTSIELRLVQKIVMDVLADLEKAWAPIYATKMGFLRMEMNPRLVNIVPPEYQVVTMEMEIQIEEIIGKMIFAVPLTTIDPVREKLKNGAQVDMMAIDPQWSFRLSKELLEAPLDLSVEVGGAIISMDELLNLTPGDTIMLDTPCNSDLVVKVGGVSKFMSAPGLRHGNKAAQITTIIGKGREQ”, the “soluble on expression in E. coli” value is reported as “not soluble”.
